Reference: the supplement of paper PMC5998384

Columns and labels:
[1] = tested on: HeLa Kyoto; assay: solubility change mitosis vs G1/S (difference of NP-40 vs SDS log2 ratios) (log2 ratio difference); higher = more soluble in mitosis
[2] = tested on: HeLa Kyoto; assay: thermal stability score vs G1/S (z-score of summed log2 fold changes over temperatures); higher = more thermally stable than in G1/S
[3] = tested on: HeLa Kyoto; assay: solubility in G1/S (NP-40 vs SDS abundance) (log2 ratio); higher = more soluble; conditions: cell cycle stage: G1/S
[4] = tested on: HeLa Kyoto; assay: melting temperature (median over replicates), in situ; higher = more thermally stable
[5] = cell cycle stage: early G1 (4.5 h after nocodazole release)
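Wherever melting temperature (median over replicates), in situ is given: HeLa Kyoto cells synchronized by double thymidine or nocodazole block, proteins quantified by TMT10plex mass spectrometry, three independent biological replicates.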
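Wherever solubility change mitosis vs G1/S (difference of NP-40 vs SDS log2 ratios) is given: synchronized HeLa Kyoto cells (double thymidine block for G1/S, nocodazole release for mitosis), protein amounts in NP-40 versus SDS lysates quantified by mass spectrometry, three biological replicates.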
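Wherever solubility in G1/S (NP-40 vs SDS abundance) is given: HeLa Kyoto cells arrested at G1/S by double thymidine block, proteins quantified by TMT10plex mass spectrometry in mild NP-40 versus SDS extracts, three biological replicates.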
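Wherever thermal stability score vs G1/S (z-score of summed log2 fold changes over temperatures) is given: synchronized HeLa Kyoto cells, proteins quantified by TMT10plex mass spectrometry, three biological replicates, mitosis taken 0.5 h after nocodazole release, G1/S directly after double thymidine block.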

Chain of MCTP2 (chain, as listed by the source): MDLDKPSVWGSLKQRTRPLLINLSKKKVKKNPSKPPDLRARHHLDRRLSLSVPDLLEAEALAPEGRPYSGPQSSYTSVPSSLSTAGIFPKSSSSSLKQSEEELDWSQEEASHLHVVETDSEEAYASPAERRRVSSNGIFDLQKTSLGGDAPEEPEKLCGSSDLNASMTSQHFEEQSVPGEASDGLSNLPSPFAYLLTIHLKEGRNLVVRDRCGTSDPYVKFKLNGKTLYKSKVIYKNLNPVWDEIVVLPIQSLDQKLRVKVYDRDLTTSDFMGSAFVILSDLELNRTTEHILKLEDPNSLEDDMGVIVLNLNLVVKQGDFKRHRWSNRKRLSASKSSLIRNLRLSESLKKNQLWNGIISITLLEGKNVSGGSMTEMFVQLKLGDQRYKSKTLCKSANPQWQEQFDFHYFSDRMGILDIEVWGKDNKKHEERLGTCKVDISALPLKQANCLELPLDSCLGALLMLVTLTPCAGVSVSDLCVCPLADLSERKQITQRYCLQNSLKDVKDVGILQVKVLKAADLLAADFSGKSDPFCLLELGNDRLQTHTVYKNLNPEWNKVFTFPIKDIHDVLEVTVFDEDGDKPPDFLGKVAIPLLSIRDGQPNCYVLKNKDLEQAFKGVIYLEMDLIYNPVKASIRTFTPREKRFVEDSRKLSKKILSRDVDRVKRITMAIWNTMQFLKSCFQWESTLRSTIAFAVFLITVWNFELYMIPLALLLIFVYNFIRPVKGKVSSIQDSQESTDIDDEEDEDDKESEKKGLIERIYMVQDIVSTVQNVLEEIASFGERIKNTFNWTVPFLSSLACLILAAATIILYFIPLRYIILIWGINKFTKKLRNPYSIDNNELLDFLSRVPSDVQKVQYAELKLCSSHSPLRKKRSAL

Substance	solubility change mitosis (log2) [1]	thermal stability score [2, 5]	thermal stability score ([2]; cell cycle stage: mitosis)	solubility in G1/S (log2) [3]	melting temperature ([4]; cell cycle stage: G1/S)	melting temperature ([4]; cell cycle stage: mitosis)
MAVVIRLQGLPIVAGTMDIRHFFSGLTIPDGGVHIVGGELGEAFIVFATDEDARLGMMRTGGTIKGSKVTLLLSSKTEMQNMIELSRRRFETANLDIPPANASRSGPPPSSGMSSRVNLPTTVSNFNNPSPSVVTATTSVHESNKNIQTFSTASVGTAPPNMGASFGSPTFSSTVPSTASPMNTVPPPPIPPIPAMPSLPPMPSIPPIPVPPPVPTLPPVPPVPPIPPVPSVPPMTPLPPMSGMPPLNPPPVAPLPAGMNGSGAPMNLNNNLNPMFLGPLNPVNPIQMNSQSSVKPLPINPDDLYVSVHGMPFSAMENDVRDFFHGLRVDAVHLLKDHVGRNNGNGLVKFLSPQDTFEALKRNRMLMIQRYVEVSPATERQWVAAGGHITFKQNMGPSGQTHPPPQTLPRSKSPSGQKRSRSRSPHEAGFCVYLKGLPFEAENKHVIDFFKKLDIVEDSIYIAYGPNGKATGEGFVEFRNEADYKAALCRHKQYMGNRFIQVHPITKKGMLEKIDMIRKRLQNFSYDQREMILNPEGDVNSAKVCAHITNIPFSITKMDVLQFLEGIPVDENAVHVLVDNNGQGLGQALVQFKNEDDARKSERLHRKKLNGREAFVHVVTLEDMREIEKNPPAQGKKGLKMPVPGNPAVPGMPNAGLPGVGLPSAGLPGAGLPSTGLPGSAITSAGLPGAGMPSAGIPSAGGEEHAFLTVGSKEANNGPPFNFPGNFGGSNAFGPPIPPPGLGGGAFGDARPGMPSVGNSGLPGLGLDVPGFGGGPNNLSGPSGFGGGPQNFGNGPGSLGGPPGFGSGPPGLGSAPGHLGGPPAFGPGPGPGPGPGPIHIGGPPGFASSSGKPGPTVIKVQNMPFTVSIDEILDFFYGYQVIPGSVCLKYNEKGMPTGEAMVAFESRDEATAAVIDLNDRPIGSRKVKLVLG [RBM12]	-0.147	1.03	4.25	0.344	48.7 °C	49.2 °C
MAVVPASLSGQDVGSFAYLTIKDRIPQILTKVIDTLHRHKSEFFEKHGEEGVEAEKKAISLLSKLRNELQTDKPFIPLVEKFVDTDIWNQYLEYQQSLLNESDGKSRWFYSPWLLVECYMYRRIHEAIIQSPPIDYFDVFKESKEQNFYGSQESIIALCTHLQQLIRTIEDLDENQLKDEFFKLLQISLWGNKCDLSLSGGESSSQNTNVLNSLEDLKPFILLNDMEHLWSLLSNCKKTREKASATRVYIVLDNSGFELVTDLILADFLLSSELATEVHFYGKTIPWFVSDTTIHDFNWLIEQVKHSNHKWMSKCGADWEEYIKMGKWVYHNHIFWTLPHEYCAMPQVAPDLYAELQKAHLILFKGDLNYRKLTGDRKWEFSVPFHQALNGFHPAPLCTIRTLKAEIQVGLQPGQGEQLLASEPSWWTTGKYGIFQYDGPL [ARMT1]	-0.15	1.02	1.91	0.0146	49.6 °C	49 °C
MAWRGWAQRGWGCGQAWGASVGGRSCEELTAVLTPPQLLGRRFNFFIQQKCGFRKAPRKVEPRRSDPGTSGEAYKRSALIPPVEETVFYPSPYPIRSLIKPLFFTVGFTGCAFGSAAIWQYESLKSRVQSYFDGIKADWLDSIRPQKEGDFRKEINKWWNNLSDGQRTVTGIIAANVLVFCLWRVPSLQRTMIRYFTSNPASKVLCSPMLLSTFSHFSLFHMAANMYVLWSFSSSIVNILGQEQFMAVYLSAGVISNFVSYVGKVATGRYGPSLGASGAIMTVLAAVCTKIPEGRLAIIFLPMFTFTAGNALKAIIAMDTAGMILGWKFFDHAAHLGGALFGIWYVTYGHELIWKNREPLVKIWHEIRTNGPKKGGGSK [PARL]	-0.267	-0.187	-2.36	-0.0323	54.9 °C	55.8 °C
MAYPGHPGAGGGYYPGGYGGAPGGPAFPGQTQDPLYGYFAAVAGQDGQIDADELQRCLTQSGIAGGYKPFNLETCRLMVSMLDRDMSGTMGFNEFKELWAVLNGWRQHFISFDTDRSGTVDPQELQKALTTMGFRLSPQAVNSIAKRYSTNGKITFDDYIACCVKLRALTDSFRRRDTAQQGVVNFPYDDFIQCVMSV [SRI]	0.318	-2.31	-2.35	0.028	52.8 °C	52.2 °C
MCAAQMPPLAHIFRGTFVHSTWTCPMEVLRDHLLGVSDSGKIVFLEEASQQEKLAKEWCFKPCEIRELSHHEFFMPGLVDTHIHASQYSFAGSSIDLPLLEWLTKYTFPAEHRFQNIDFAEEVYTRVVRRTLKNGTTTACYFATIHTDSSLLLADITDKFGQRAFVGKVCMDLNDTFPEYKETTEESIKETERFVSEMLQKNYSRVKPIVTPRFSLSCSETLMGELGNIAKTRDLHIQSHISENRDEVEAVKNLYPSYKNYTSVYDKNNLLTNKTVMAHGCYLSAEELNVFHERGASIAHCPNSNLSLSSGFLNVLEVLKHEVKIGLGTDVAGGYSYSMLDAIRRAVMVSNILLINKVNEKSLTLKEVFRLATLGGSQALGLDGEIGNFEVGKEFDAILINPKASDSPIDLFYGDFFGDISEAVIQKFLYLGDDRNIEEVYVGGKQVVPFSSSV [GDA]	-0.0926	-1.49	-2.29	0.0143	61.9 °C	63.7 °C
MCDLRRPAAGGMMDLAYVCEWEKWSKSTHCPSVPLACAWSCRNLIAFTMDLRSDDQDLTRMIHILDTEHPWDLHSIPSEHHEAITCLEWDQSGSRLLSADADGQIKCWSMADHLANSWESSVGSLVEGDPIVALSWLHNGVKLALHVEKSGASSFGEKFSRVKFSPSLTLFGGKPMEGWIAVTVSGLVTVSLLKPSGQVLTSTESLCRLRGRVALADIAFTGGGNIVVATADGSSASPVQFYKVCVSVVSEKCRIDTEILPSLFMRCTTDLNRKDKFPAITHLKFLARDMSEQVLLCASSQTSSIVECWSLRKEGLPVNNIFQQISPVVGDKQPTILKWRILSATNDLDRVSAVALPKLPISLTNTDLKVASDTQFYPGLGLALAFHDGSVHIVHRLSLQTMAVFYSSAAPRPVDEPAMKRPRTAGPAVHLKAMQLSWTSLALVGIDSHGKLSVLRLSPSMGHPLEVGLALRHLLFLLEYCMVTGYDWWDILLHVQPSMVQSLVEKLHEEYTRQTAALQQVLSTRILAMKASLCKLSPCTVTRVCDYHTKLFLIAISSTLKSLLRPHFLNTPDKSPGDRLTEICTKITDVDIDKVMINLKTEEFVLDMNTLQALQQLLQWVGDFVLYLLASLPNQGSLLRPGHSFLRDGTSLGMLRELMVVIRIWGLLKPSCLPVYTATSDTQDSMSLLFRLLTKLWICCRDEGPASEPDEALVDECCLLPSQLLIPSLDWLPASDGLVSRLQPKQPLRLQFGRAPTLPGSAATLQLDGLARAPGQPKIDHLRRLHLGACPTEECKACTRCGCVTMLKSPNRTTAVKQWEQRWIKNCLAVEGRGPDACVTSRASEEAPAFVQLGPQSTHHSPRTPRSLDHLHPEDRP [MED16]	-0.185	0.307	0.64	-0.121	52.2 °C	52 °C
MCGNNMSTPLPAIVPAARKATAAVIFLHGLGDTGHGWAEAFAGIRSSHIKYICPHAPVRPVTLNMNVAMPSWFDIIGLSPDSQEDESGIKQAAENIKALIDQEVKNGIPSNRIILGGFSQGGALSLYTALTTQQKLAGVTALSCWLPLRASFPQGPIGGANRDISILQCHGDCDPLVPLMFGSLTVEKLKTLVNPANVTFKTYEGMMHSSCQQEMMDVKQFIDKLLPPID [LYPLA1]	0.23	0.0704	-0.796	0.619	54.6 °C	56.2 °C
MCM3AP	0.655	-0.00305	-0.291	-0.867	48.7 °C	49.5 °C
MCSLGLFPPPPPRGQVTLYEHNNELVTGSSYESPPPDFRGQWINLPVLQLTKDPLKTPGRLDHGTRTAFIHHREQVWKRCINIWRDVGLFGVLNEIANSEEEVFEWVKTASGWALALCRWASSLHGSLFPHLSLRSEDLIAEFAQVTNWSSCCLRVFAWHPHTNKFAVALLDDSVRVYNASSTIVPSLKHRLQRNVASLAWKPLSASVLAVACQSCILIWTLDPTSLSTRPSSGCAQVLSHPGHTPVTSLAWAPSGGRLLSASPVDAAIRVWDVSTETCVPLPWFRGGGVTNLLWSPDGSKILATTPSAVFRVWEAQMWTCERWPTLSGRCQTGCWSPDGSRLLFTVLGEPLIYSLSFPERCGEGKGCVGGAKSATIVADLSETTIQTPDGEERLGGEAHSMVWDPSGERLAVLMKGKPRVQDGKPVILLFRTRNSPVFELLPCGIIQGEPGAQPQLITFHPSFNKGALLSVGWSTGRIAHIPLYFVNAQFPRFSPVLGRAQEPPAGGGGSIHDLPLFTETSPTSAPWDPLPGPPPVLPHSPHSHL [AAAS]	0.0315	-4.87	-7.02	-0.296	53.6 °C	51 °C
MCTP2	-0.136	0.55	0.479	-0.274	50.2 °C	50.1 °C
MDADDSRAPKGSLRKFLEHLSGAGKAIGVLTSGGDAQGMNAAVRAVVRMGIYVGAKVYFIYEGYQGMVDGGSNIAEADWESVSSILQVGGTIIGSARCQAFRTREGRLKAACNLLQRGITNLCVIGGDGSLTGANLFRKEWSGLLEELARNGQIDKEAVQKYAYLNVVGMVGSIDNDFCGTDMTIGTDSALHRIIEVVDAIMTTAQSHQRTFVLEVMGRHCGYLALVSALACGADWVFLPESPPEEGWEEQMCVKLSENRARKKRLNIIIVAEGAIDTQNKPITSEKIKELVVTQLGYDTRVTILGHVQRGGTPSAFDRILASRMGVEAVIALLEATPDTPACVVSLNGNHAVRLPLMECVQMTQDVQKAMDERRFQDAVRLRGRSFAGNLNTYKRLAIKLPDDQIPKTNCNVAVINVGAPAAGMNAAVRSAVRVGIADGHRMLAIYDGFDGFAKGQIKEIGWTDVGGWTGQGGSILGTKRVLPGKYLEEIATQMRTHSINALLIIGGFEAYLGLLELSAAREKHEEFCVPMVMVPATVSNNVPGSDFSIGADTALNTITDTCDRIKQSASGTKRRVFIIETMGGYCGYLANMGGLAAGADAAYIFEEPFDIRDLQSNVEHLTEKMKTTIQRGLVLRNESCSENYTTDFIYQLYSEEGKGVFDCRKNVLGHMQQGGAPSPFDRNFGTKISARAMEWITAKLKEARGRGKKFTTDDSICVLGISKRNVIFQPVAELKKQTDFEHRIPKEQWWLKLRPLMKILAKYKASYDVSDSGQLEHVQPWSV [PFKP]	-0.138	-0.744	-1.49	-0.0125	57.4 °C	58.3 °C
MDAGFFRGTSAEQDNRFSNKQKKLLKQLKFAECLEKKVDMSKVNLEVIKPWITKRVTEILGFEDDVVIEFIFNQLEVKNPDSKMMQINLTGFLNGKNAREFMGELWPLLLSAQENIAGIPSAFLELKKEEIKQRQIEQEKLASMKKQDEDKDKRDKEEKESSREKRERSRSPRRRKSRSPSPRRRSSPVRRERKRSHSRSPRHRTKSRSPSPAPEKKEKTPELPEPSVKVKEPSVQEATSTSDILKVPKPEPIPEPKEPSPEKNSKKEKEKEKTRPRSRSRSKSRSRTRSRSPSHTRPRRRHRSRSRSYSPRRRPSPRRRPSPRRRTPPRRMPPPPRHRRSRSPVRRRRRSSASLSGSSSSSSSSRSRSPPKKPPKRTSSPPRKTRRLSPSASPPRRRHRPSPPATPPPKTRHSPTPQQSNRTRKSRVSVSPGRTSGKVTKHKGTEKRESPSPAPKPRKVELSESEEDKGGKMAAADSVQQRRQYRRQNQQSSSDSGSSSSSEDERPKRSHVKNGEVGRRRRHSPSRSASPSPRKRQKETSPRGRRRRSPSPPPTRRRRSPSPAPPPRRRRTPTPPPRRRTPSPPPRRRSPSPRRYSPPIQRRYSPSPPPKRRTASPPPPPKRRASPSPPPKRRVSHSPPPKQRSSPVTKRRSPSLSSKHRKGSSPSRSTREARSPQPNKRHSPSPRPRAPQTSSSPPPVRRGASSSPQRRQSPSPSTRPIRRVSRTPEPKKIKKAASPSPQSVRRVSSSRSVSGSPEPAAKKPPAPPSPVQSQSPSTNWSPAVPVKKAKSPTPSPSPPRNSDQEGGGKKKKKKKDKKHKKDKKHKKHKKHKKEKAVAAAAAAAVTPAAIAAATTTLAQEEPVAAPEPKKETESEAEDNLDDLEKHLREKALRSMRKAQVSPQS [SRRM1]	1.02	-6.13	-6.36	-1.06	51.3 °C	50 °C
